Reference: article PMC8733265, “Microscale thermophoresis suggests a new model of regulation of cardiac myosin function via interaction with cardiac myosin-binding protein C” (The Journal of Biological Chemistry, 2021)

How the values were obtained:
[1] = molecular target: T1, C0C2, cMyBP-C spanning domains C0 to C2 (UniProt Q14896 1-452); experiment: MST; Monolith NT.115; 100 nmol/l Alexa647-labelled protein fixed, partner titrated; 20 mmol/l Mops pH 7, 1 mmol/l MgCl2, 50 mmol/l KCl, 1 mmol/l DTT, 0.05% Tween-20; settings: both partners purified
T1 construct: also called N-terminal domains (NTD) of cMyBP-C; C0-P/A-C1-m-C2; source: E. coli BL21(DE3)-RIPL, purified (HisTrapFF, TEV, ion exchange); not shown: His tag, N-terminal, cleaved
T1 sequence (Q14896 1-452): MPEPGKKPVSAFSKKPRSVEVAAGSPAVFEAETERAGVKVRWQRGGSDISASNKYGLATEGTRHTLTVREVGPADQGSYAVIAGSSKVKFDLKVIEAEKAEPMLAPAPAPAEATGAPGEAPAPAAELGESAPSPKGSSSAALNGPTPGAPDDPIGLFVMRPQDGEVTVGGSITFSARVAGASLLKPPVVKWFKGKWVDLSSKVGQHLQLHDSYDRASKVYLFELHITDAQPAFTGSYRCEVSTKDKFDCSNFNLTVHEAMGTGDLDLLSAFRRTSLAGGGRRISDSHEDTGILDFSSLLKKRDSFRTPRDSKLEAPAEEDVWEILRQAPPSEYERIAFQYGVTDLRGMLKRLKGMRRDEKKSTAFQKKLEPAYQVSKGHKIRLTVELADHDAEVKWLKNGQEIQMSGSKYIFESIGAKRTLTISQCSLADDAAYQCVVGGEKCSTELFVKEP

[2] = molecular target: T2, C0C2-3P, tris-phosphorylated C0C2 (UniProt Q14896 1-452, tris-phosphorylated by PKA (m-motif; sites not given)); experiment: as above; settings: both partners purified
T2 construct: not shown: His tag, N-terminal, cleaved
T2 sequence (Q14896 1-452): as above

Kd [1]: 2700 nM | Kd [2]: 5 µM
B1: phospho-miniHMM (miniHMM phosphorylated in vitro by cMLCK) (complex)
chain 1: RDSLLVIQWNIRAFMGVKNWPWMKLYFKIKPLLKSAEREKEMASMKEEFTRLKEALEKSEARRKELEEKMVSLLQEKNDLQLQVQAEQDNLADAEERCDQLIKNKIQLEAKVKEMNERLEDEEEMNAELTAKKRKLEDECSELKRDIDDLELTLAK
chain 2: APKKAKKRAGGANSNVFSMFEQTQIQEFKEAFTIMDQNRDGFIDKNDLRDTFAALGRVNVKNEEIDEMIKEAPGPINFTVFLTMFGEKLKGADPEETILNAFKVFDPEGKGVLKADYVREMLTTQAERFSKEEVDQMFAAFPPDVTGNLDYKNLVHIITHGEEKD
modifications: phosphorylated by cMLCK to about 1 mol Pi/mol RLC (site not given)
